From the nanobody polyreactivity screen of Harvey et al. (2022)

Experiment: yeast display, Sf9 membrane polyspecificity reagent, FACS + sequencing; frameworks hold sequencing errors
In short: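 Galactose induction of a Saccharomyces cerevisiae BJ5465 synthetic nanobody display library ran 36–48 hours. The cells were then stained for 1 hour at 4 °C with 10% biotinylated, detergent-solubilized Sf9 membrane reagent, pulled down on streptavidin microbeads and FACS-sorted into low and high (top ~1%) gates on expression and reagent-binding fluorescence. Labels for polyreactivity follow the gate of origin.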

Row | Sequence | polyreactivity (PSR sort gate)
1 | QVKLVESGGGLVQAGGSLRFTCAASGRTFGSNAMGWYRQAPGKERELVAVITTSGGSTYYADSVKGRFTISRDNAKNTVYLQMISLKPEDTAVYSCAKRVATGYKSYGYGYWGQGTQVTVSS | high polyreactivity
2 | QVQLVESGGGLVQSGGSLRLSCAASGSIFNLYAMGWYRQAPGKERELVAAINWSGGSTYYADSVNGRFTISRDNAKNTVYLQMNRLKPEDTAVSYCAADAYSTYYGYEGVYWGQGTQVTVSS | low polyreactivity
3 | QVQLVESGGGLVQAGGSLRLSCAASGRIFIYNAMGWYRQAPGKEREFVAAISSSGGSTYYADSVKGRFTISRDNAKNTVYLQMNSLKPEDTAVYYCAAGGWPYSGGLFFQPNYDYWGQGTQVTVSS | low polyreactivity
4 | QVQRVESGGGLVQAGGSLRLSCAASGSTFYRYAMVWYRQAPGKERELVATISGGGRTNYADSVKGRFTISRDNAKNTVYLQMNSLKPEDTAVYYCAVDSSSPYDYWGQGTQVTVSS | high polyreactivity
5 | QVQLVESGGGLVQAGGSLRLSCAASGNTFKTNAMGWYRQAPGKERELVAAISSSGSTYYADSVKGRFTISRDNAKNTVYLQMNSLKPEDTAVYYCAVTYRRFYYWGQGTQVTVSS | high polyreactivity
6 | QVQLVESGGGLVQAGGSLRLSCAASGRIFIGYAMGWYRQAPGKERELVAGISQRGGRTYYADSVKGRFTISRDNAKNTVYLQMNSLKPEDTAVYYCNKRFSLGYRGGYWGQGTQVTVSS | high polyreactivity
7 | QVQLVESGGGLVQAGGSLRLSCAASGSTFRYNAMGWYRQAPGKERELVAAITSSGSRTYYADSVKGRFTISRDNAKNTVYFQMISLKPEDTAVYYCAAYGYYTKVTKYDYWGQGTQVTVSS | high polyreactivity
8 | QVQLQGSGGGLVQAAGSLRLSCAASGYIFQNVPMGWNRQAPGKERELVAGIDNGTSTNYADSVNGRFTISRDNAKKTVYLQMNSLKPEDTAVYYCAAAGQADDTLGYWGQGTQVTVSR | low polyreactivity
9 | QDQHVESGGGLVQAGGSLRLSCAASGIIFDYNAMGWYRQAPGKERELVAAITSTDNTNYADSVKGRLTISRDNAKNTVYLQMNSLKPEDTAVYYCNSDYWLSVVYAMDYWGQGTQVTVSS | low polyreactivity
10 | QVQLVESGGGLVQAGGSLRLSCAASGRIFKRYTMGWYRQAPGKERELVAGITFSGGSTYYADSVKGRFTISRDNAKNTVYLQMNSLKPEDTAVYDCNARVPPQGWGPWKAFDYWGQGTQVTVSS | low polyreactivity
11 | QVQLVESGGGLVQAGGSLRLSCAASGLTFDAYAMGWYRQAPGKERELVAAISSGGNTYYADSVKGRFTISRDNAKNTVYLQMNSLKPEDTAVYYCNAVGYYKYFVLAYEYDYWGQGTQVTVSS | low polyreactivity
12 | QVQLVESGGGLVPAGGSLRLSCAASGRTFYRYARGWYRKAHGKERELVASITRDGRTNYADSVKGSFTISRDNAKNTVYLQMNSLKPEDTAFYYCNAKLKITHSSSDYWGQGTQVTVSS | high polyreactivity
13 | QVQLVESPGRLVQAGGSLRLSCDPTGRTFKIYALGSSRQAPGKESELVAAIRRSGGNTYYADSVKGRFTISRDNAKNTVYLQMNSLKPEDTAVYYCAVGRGSLRGRTDGGYWGQGTQVTVSS | high polyreactivity
14 | QVQLVESGGGLVQAGGSLRLSCAASGSTFGVNAMGWYRQAPGKERELVASIRKRGGTTYYADSVKGRFTISRDNAKNTVYLQMNSLKPEDTAVYYCAAQYGDEVDYWGQGTQVTVSS | high polyreactivity
15 | QVQLVESGGGLVQAGGSLRLSCAASGRIFRYYAMGWYRQAPGKESELVAAINSGGSTKYADSVKGRFTISRDNAKNTVYLQMNSLKPEDTAVYYCNKDHAFSRYWYGGFDYWGQGTQVTVSS | high polyreactivity
16 | QVQLVESGGGLVQAGGSLRLSCADSGRTFQYYAMGWSRQSPAKERELVAAITSGGSTYYADSVKGRFTISRDNAKNTVYLQMNSLKTEDTAVYYCAADFLYYSSGGKMDYWGQGTQVTVSS | low polyreactivity
17 | QVQLVESGGGVVQAGGSLRLSCAASGFIFHQNAMGWYRPAPGKERELVAAITRSGTSTYYADSVKGRFTISRDYAKNTVYLQMYSLKPEDTAVYYCANDPVRVGRFGYEYWGQGTQVTVSS | low polyreactivity
18 | QVQLVESGGGLVQAGGSLRLSCAASGRTFYRYTMGWYRQAPGKERQLVAGISWRGGTTYYADSVKGRFTISRDNAKNTVYLQMNSLKPEDTAVYYCAAKAGYRYGSLAYYKYDYWGLGTQVTVSS | high polyreactivity
19 | QVQLVESGGGLVQAGGSLRLSCAASGRIFSAYAMGWYRQAPGKERELVAANSRSGGRTYYADSVKGRFTISRDNAKNTVYLQMNSLKPDDTAVYYCAVLWHGRRPLYKLRTGPEYDYWGQGTQVTVSS | high polyreactivity
20 | QVQLVESGGGLVQAGGSLRLSCAASGRTFRLYAMGWYRQAPGKERELVAAITRGGRTNYADSVKGRFTISRDNAKNTVYLQMNSLKPEDTAVYYCAARYVEGHPDYYYWGQGTQVTVSS | low polyreactivity
21 | QVQLVESGGGLVQAGGSLRLSCAASGITFGDYAMVWYRQAPGKERELVAAITSGGSTYYADSVKGRCTISRDNAKNTVYLQMNILKPEDTAVYYCNRQYNQWIHYYYRMDYWGQGTQVTVSS | high polyreactivity
22 | QVQLVESGGGLVQAGGSLRLSCAASGSTFPYYAMGWYRQAPGKERELVAAISWRGTRTYYADSVKGRFTISRDNAKNTVYLQMNSLKPEDTAVYYCNAYHTPEYQEGGYYWGQGTQVTVSS | high polyreactivity

Row | Sequence | polyreactivity (PSR sort gate)
23 | QDQLVESGGGLVQAGGSLRISCAASGSTFIYNAMGWYRQAPGKERELVATITGRGSTYYAYSVKGRFTISRDNAKNTVYLQLNSLKPEDTAVYYCAATIFNSFYWRYGYWGQGSQVTVSS | low polyreactivity
24 | QVQLVESGGGLVQAGGSLRLSCAASGYTFVIYAMGSYRQAPGKERELVAAITTIGGRTYYADSVKGRFTISRDNAKNTVYLQMNSLKPEDTAVYYCAADIRSNRLYDGGYWGQGTQVTVSS | low polyreactivity
25 | QVQLVESGGGLVQAGGSLRLSCAASGSTFISYAMGWYRQAPGKERELVAAISYRGGSTRYADSVKGRFTISRDNAKNTVYLQMNSLKPEDTAVYYCAAYTRKSHIREYDYWGQGTQVTVSS | high polyreactivity
26 | QVQLVESGGGLVQAGGSLRLSCAASGFIIRKYAMGWYRPAPGKEWELVAAISGRADSTYYADSVKGRFTISRDNAKNTVYLQMNSLKPDDTAVYYCAAYWHSKIGKGYDYWGQGTQVTVSS | high polyreactivity
27 | QVQLVESGGGLVQAGGSLRLSCAASGFTFDWYAMGWYRQAPGKERELVAAISSGGNTKYADSVKGRFTISRDNAKNTVYLQMNSLKPEDTAVYYCAARLYYSLSYYYWGQGTQVTVSS | high polyreactivity
28 | QVQLVESGGGLVQAGGSLRLSCAASGFTFPNYAMGWYRQAPGKERELVAAITSGGGRTNYADSVKGRFTISRDNAKNTVYLQMNSLKPVDTAVYYCAKTRVRGSEFGYWGQGTQVTVSS | low polyreactivity
29 | QVQLVESGGGLVQAGGSLRLSCAASGYTFKAYAMGWYRQAPGKERELVAGISRSGGSTYYADSVKGRFTISRDNAKNTVYLQMNSLKPEDTAVYYCAADSFSWETVVPSVFEFDYWGQGTQVTVSS | low polyreactivity
30 | QVQLVESGGGLVQAGGSLRLSCAASGSIFVGNAMGWYRQAPGKERELVATITSGCSTYYADSVKGRFTISRDNAMNTVYLQMNSLKPEVTAVYYCAADYDFSKFDYDYWGQGTQVTVSS | low polyreactivity
31 | QVQLVDSGAGLVQAGGSLRIICAASVRTFPRNAMGWYRQAPGKEMEMVAAITGSGGSTYYADSVKGRFTISRDNAKNTVYLQMNSLKPEDTAVYYCAARGPSRRRDGSDYWGQGTQVTVSS | high polyreactivity
32 | QVQRVESGGGLVQAGGSLRLSCAASGRTFNHYAMGWYRAAPGKERELVAAISRSGGTTYYADSVKGRFTISRENAKNTVYLQMNSLKPEDTAVYYCAARWWYRYNYDFWGQGTQVTVSS | high polyreactivity
33 | QVQLVESGGGIVQAGGSLRLSCAASGFTFDYYAMGWYRQAPGKERELVAAISWRGTTTYYADSVKGRFTISRDNAKNTVYLQMNSLKPEDTAVYYCAADSLFGHYDYWGQGTQVTVSS | low polyreactivity
34 | QVQLVESGRGLVQAGGSLRLSCAASGITFWYYAMGWYRQAPGKERELVASINRSGGSTYADSVKGRFTISRDNAKITVYLQMNSLKPEDTAVYYCAARLYSSVVRYRYGYWGQGTQVTVSS | high polyreactivity
35 | QVQLVESAGGLVQAGGSLRLSCAASGLTFVRYGMGWYRQAPGKERELVAAITSDDSTYYADSVKGSFTISRDNAQNTVYLQMNSLNPEDTAVYYCAARYTLYDTGESSRTYTGFIYWGLGTQVTVSS | low polyreactivity
36 | QVQLVESGGGLVQAGGSLRLSCAASGRIFIRYAMGWYRQAPGKERELVASISRNGGTTYYADSVKGRFTISRDNAQNTVYLQMNSLKPEDTAVYYCNTVHRSVDKAGYDYWGQGTQVTVSS | high polyreactivity
37 | QVQLVESGGGLVQAGGSLRLSCAASGGTFPWYTMGWYRQAPGKERELFAAISWRGGRTYYADSVKGRFTISRDNAKNTVYLQMNSLKPEDTAVYYCAATPRYRVYYGSYYLRYDYWGQGTQVTVSS | high polyreactivity
38 | QVQLVESGGGLVQAGGSLRLSCAASGSTFFTNAMGWYRQAPGKERELVAAITINDGSTFYADSVKGRFTITRDNAKNTVYLQMNSLKPEDTAVYYCNADGVDLYDYWGQGTQVTVSS | low polyreactivity
39 | QVQLVESGGGLVQAGGSLRLSCAASGSTFRFNAMGWYRQAPGKEREFVAAISTSGGSTYYADSVKGRFTISRDNAKNTVYLQMNSLKPEDTAVYYCATRRRIRSSFYYDNDYWGQGTQVTVSS | high polyreactivity
40 | QVQLVESGGGLVQAGGSLRLSCAASGRIFGYNAMGWYRQAPGKERELVAAISSSGGSTYYADSVKGRFTISRDNAKNTVYLQMNSLKPEDTAVYYCAARRVTRTTVYRYQYYYWGQGTQVTVSS | high polyreactivity
41 | QVQLVESGGGLVQAGGSLRLSCPATGFTFSVYVMAWYRLAPGKERELVAAISSGGDTTYADSVKGRFTISRDNAKNTVYLQMNSLKPEDTAVYYCAAYRVILYYLYDYWGQGTQVTVSS | low polyreactivity
42 | QVQLVESGGGLVQAGGSLRLSCAASAFIFSRNAMGWYRQAPGKDRELVAAISLRGGSTSYADSVKGRFTISRDTAKNTVYIQMNSLKPEDTAVYYCAKYDRNTYGYWGQGTEVTVSS | low polyreactivity
43 | QVQLVESCGGLVQAGGSLRLSCAASGRTFGRNAMGWYRQAPGEREMVAVISRGGSTYYADSVKGRFTISRDNAKNTVYLQMNSLKPEDTAVYYCNADTVYTRTAPYDYWGQGTQVTVSS | low polyreactivity
